Experimental data reported in publication PMC6678494, “Characterization of the First Bacterial and Thermostable GDP-Mannose 3,5-Epimerase” (International Journal of Molecular Sciences, 2019).

Key:
MfGM35E = target: T1, MfGM35E (Candidatus Methylacidiphilum fumarolicum, UniProt A0ABM9IGG7); experiment: specific activity with added NAD+, HPAEC-PAD; type: biochemical; conditions: 2 mM GDP-Man, 100 mM MOPS pH 7.5, 50 °C; independent of added NAD+ concentration
T1 construct: gene MFUM_2356; codon-optimized gene in pET21 (NdeI/XhoI), C-terminal His6-tag kept, E. coli BL21(DE3), Ni-NTA, about 37 kDa

[1] = substrate: Nc1nc2c(ncn2[C@@H]2O[C@H](COP(=O)(O)OP(=O)(O)O[C@H]3O[C@H](CO)[C@@H](O)[C@H](O)[C@@H]3O)[C@@H](O)[C@H]2O)c(=O)[nH]1; experiment: initial rate of GDP-L-galactose formation, HPAEC-PAD, Michaelis-Menten fit; type: biochemical, Candidatus Methylacidiphilum fumarolicum; conditions: 100 mM MOPS pH 7, 60 °C, 20-2000 µM substrate

Molecule: NC(=O)c1ccc[n+]([C@@H]2O[C@H](COP(=O)(O)OP(=O)(O)OC[C@H]3O[C@@H](n4cnc5c(N)ncnc54)[C@H](O)[C@@H]3O)[C@@H](O)[C@H]2O)c1 [NAD^+]
- % increase in activity (MfGM35E): 65%

B1: MfGM35E (Candidatus Methylacidiphilum fumarolicum) (protein)
chain: MKKALVAGAGGFIGHHLVNFLKEKGYWVRGVDIKEPEYEKSRSDEFYLLDLRYWGNCLEATKGVDEVYQLAADMGGIGYISGNHAEIAKNNILINTHMLEASYQNGVKRYFYSSSACIYPSYRQQSVDVIPLKEEDAMPADPEEGYGWEKLFAEKLCQYYQEDKGIETRIARFHNVYGPLGTYKGGREKAPAAICRKIALAEDSSEIEVWGDGKQTRSFLYIQDCVEGIYLITQSDYPKPLNLGSEELVTIDQLVEMTAKVANKNIRIRHNLSKPQGVRGRNSDNSKLYKITGWRPKFPLLEGLKLTYPWIAERVARERNMQGCQ
notes: codon-optimized gene in pET21 (NdeI/XhoI), C-terminal His6-tag kept, E. coli BL21(DE3), Ni-NTA, about 37 kDa
- Km [1]: 98 µM
- kcat [1]: 0.2 s⁻¹
